Reference: patent US20240034757A1 (OXFORD UNIVERSITY INNOVATION, published 2024)

T1: CCL16_HUMAN (human, UniProt O15467 24-120)
T1 sequence: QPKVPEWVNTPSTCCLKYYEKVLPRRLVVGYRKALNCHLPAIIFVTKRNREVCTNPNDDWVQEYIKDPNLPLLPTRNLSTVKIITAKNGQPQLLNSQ

T2: CCL15_HUMAN (human, UniProt Q16663 22-113)
T2 sequence: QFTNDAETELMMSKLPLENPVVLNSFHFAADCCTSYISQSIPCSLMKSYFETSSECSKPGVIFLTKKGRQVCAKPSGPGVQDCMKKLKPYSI

T3: CCL3L1_HUMAN (human, UniProt P16619 24-93)
T3 sequence: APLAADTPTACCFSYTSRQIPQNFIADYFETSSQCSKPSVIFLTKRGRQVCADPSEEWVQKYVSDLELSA

T4: CCL17_HUMAN (human, UniProt Q92583 24-94)
T4 sequence: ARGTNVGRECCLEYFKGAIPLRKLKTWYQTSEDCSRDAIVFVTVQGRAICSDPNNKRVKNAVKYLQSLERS

T5: CCL23_HUMAN (human, UniProt P55773 22-120)
T5 sequence: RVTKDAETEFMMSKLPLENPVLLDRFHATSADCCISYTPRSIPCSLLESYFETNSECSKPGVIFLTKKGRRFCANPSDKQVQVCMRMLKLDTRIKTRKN

T6: CXCL3_HUMAN (human, UniProt P19876 35-107)
T6 sequence: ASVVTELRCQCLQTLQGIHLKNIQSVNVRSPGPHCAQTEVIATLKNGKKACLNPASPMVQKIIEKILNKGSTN

T7: CXCL6_HUMAN (human, UniProt P80162 38-114)
T7 sequence: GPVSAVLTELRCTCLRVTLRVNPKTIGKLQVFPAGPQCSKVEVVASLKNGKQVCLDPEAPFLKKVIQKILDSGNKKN

T8: CXCL4_HUMAN (human, UniProt P02776 32-101)
T8 sequence: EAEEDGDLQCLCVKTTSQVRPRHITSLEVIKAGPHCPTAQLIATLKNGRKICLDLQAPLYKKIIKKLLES

T9: CXCL10_HUMAN (human, UniProt P02778 22-98)
T9 sequence: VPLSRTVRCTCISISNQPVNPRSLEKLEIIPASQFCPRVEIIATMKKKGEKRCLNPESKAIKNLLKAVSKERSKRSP

T10: CXCL14_HUMAN (human, UniProt O95715 35-111)
T10 sequence: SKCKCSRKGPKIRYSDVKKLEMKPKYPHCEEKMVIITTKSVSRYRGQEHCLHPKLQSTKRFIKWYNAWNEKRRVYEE

T11: CXCL2_HUMAN (human, UniProt P19875 35-107)
T11 sequence: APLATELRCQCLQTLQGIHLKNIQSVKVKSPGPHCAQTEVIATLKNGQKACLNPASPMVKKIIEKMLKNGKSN

T12: CXCL11_HUMAN (human, UniProt O14625 22-94)
T12 sequence: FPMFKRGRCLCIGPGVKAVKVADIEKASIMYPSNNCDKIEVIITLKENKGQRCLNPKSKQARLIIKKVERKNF

T13: CXCL9_HUMAN (human, UniProt Q07325 23-125)
T13 sequence: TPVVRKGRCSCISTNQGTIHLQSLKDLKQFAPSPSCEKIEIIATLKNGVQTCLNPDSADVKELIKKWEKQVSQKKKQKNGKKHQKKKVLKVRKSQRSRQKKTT

T14: CXCL7_HUMAN (human, UniProt P02775 59-128)
T14 sequence: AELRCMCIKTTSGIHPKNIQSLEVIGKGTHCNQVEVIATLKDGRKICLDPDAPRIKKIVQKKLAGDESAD

T15: CXCL13_HUMAN (human, UniProt O43927 23-109)
T15 sequence: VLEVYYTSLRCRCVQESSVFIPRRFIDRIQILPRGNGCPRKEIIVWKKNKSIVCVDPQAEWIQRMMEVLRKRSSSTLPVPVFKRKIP

T16: CXCL8_HUMAN (human, UniProt P10145 28-99)
T16 sequence: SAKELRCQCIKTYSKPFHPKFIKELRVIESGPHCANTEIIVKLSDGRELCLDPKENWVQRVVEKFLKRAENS

T17: CXCL1_HUMAN (human, UniProt P09341 35-107)
T17 sequence: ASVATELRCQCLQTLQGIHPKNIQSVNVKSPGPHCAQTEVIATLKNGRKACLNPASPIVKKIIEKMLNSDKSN

T18: CXCL5_HUMAN (human, UniProt P42830 41-114)
T18 sequence: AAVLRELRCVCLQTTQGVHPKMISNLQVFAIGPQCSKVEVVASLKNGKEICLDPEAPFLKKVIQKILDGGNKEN

B1: P1156:G4S:P991 (designed binder)
chain: ADDDNELFTVQYCGMNCTKDEGGTWTGCTGKKEGCKCYHESGKNYGLCLSTEYTDFSQYGNPSDSEIEAAKPKRSDTLSHGGGGSENGEGTTQPDYDNSTDYYNYEDFKCTCPAPHLNNTNGTVMKPIGCYYTCNVTRCTAPDTYPCYNLTEHQAKNLTTSPTTLCAVGNCDHGICVPNGTKELCFKAPNLEE
notes: also called two-warhead evasin
B2: P991:G4S:P1156 (designed binder)
chain: ENGEGTTQPDYDNSTDYYNYEDFKCTCPAPHLNNTNGTVMKPIGCYYTCNVTRCTAPDTYPCYNLTEHQAKNLTTSPTTLCAVGNCDHGICVPNGTKELCFKAPNLEEGGGGSADDDNELFTVQYCGMNCTKDEGGTWTGCTGKKEGCKCYHESGKNYGLCLSTEYTDFSQYGNPSDSEIEAAKPKRSDTLSH

Key:
Assay in all cases: BLI
CCL16_HUMAN = molecular target: T1, CCL16_HUMAN
CCL2_HUMAN = CCL2_HUMAN (human, UniProt P13500 24-99)
CCL15_HUMAN = molecular target: T2, CCL15_HUMAN
CCL3L1_HUMAN = molecular target: T3, CCL3L1_HUMAN
CCL17_HUMAN = molecular target: T4, CCL17_HUMAN
CCL13_HUMAN = CCL13_HUMAN (human, UniProt Q99616 24-98)
CCL23_HUMAN = molecular target: T5, CCL23_HUMAN
CXCL3_HUMAN = molecular target: T6, CXCL3_HUMAN
CXCL6_HUMAN = molecular target: T7, CXCL6_HUMAN
CXCL4_HUMAN = molecular target: T8, CXCL4_HUMAN
CXCL10_HUMAN = molecular target: T9, CXCL10_HUMAN
CXCL14_HUMAN = molecular target: T10, CXCL14_HUMAN
CXCL2_HUMAN = molecular target: T11, CXCL2_HUMAN
CXCL11_HUMAN = molecular target: T12, CXCL11_HUMAN
CXCL12_HUMAN = CXCL12_HUMAN (human, UniProt P48061 22-89)
CXCL9_HUMAN = molecular target: T13, CXCL9_HUMAN
CXCL7_HUMAN = molecular target: T14, CXCL7_HUMAN
CXCL13_HUMAN = molecular target: T15, CXCL13_HUMAN
CXCL8_HUMAN = molecular target: T16, CXCL8_HUMAN
CXCL1_HUMAN = molecular target: T17, CXCL1_HUMAN
CXCL5_HUMAN = molecular target: T18, CXCL5_HUMAN
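Wherever result is given: biolayer interferometry of evasin binding to chemokines, association and dissociation rate constants fitted to derive Kd, RT is target residence time, fits with R² under 0.9 discarded.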

Sequence of CCL2_HUMAN (P13500 24-99 limits assumed): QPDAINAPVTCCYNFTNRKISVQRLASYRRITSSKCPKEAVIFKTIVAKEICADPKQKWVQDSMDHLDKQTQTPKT
Sequence of CCL13_HUMAN (Q99616 24-98 limits assumed): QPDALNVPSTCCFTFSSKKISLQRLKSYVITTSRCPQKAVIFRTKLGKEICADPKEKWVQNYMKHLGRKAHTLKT
Sequence of CXCL12_HUMAN (P48061 22-89 limits assumed): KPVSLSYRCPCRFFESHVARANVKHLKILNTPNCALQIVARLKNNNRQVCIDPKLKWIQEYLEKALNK

Binder | Kd (CCL16_HUMAN) [nM] | RT (CCL16_HUMAN) [min] | Kd (CCL2_HUMAN) [nM] | RT (CCL2_HUMAN) [min] | Kd (CCL15_HUMAN) [nM] | RT (CCL15_HUMAN) [min] | Kd (CCL3L1_HUMAN) [nM] | RT (CCL3L1_HUMAN) [min] | Kd (CCL17_HUMAN) [nM] | RT (CCL17_HUMAN) [min] | Kd (CCL13_HUMAN) [nM] | RT (CCL13_HUMAN) [min] | Kd (CCL23_HUMAN) [nM] | RT (CCL23_HUMAN) [min] | Kd (CXCL3_HUMAN) [nM] | RT (CXCL3_HUMAN) [min] | binding result (CXCL6_HUMAN) | binding result (CXCL4_HUMAN) | binding result (CXCL10_HUMAN) | binding result (CXCL14_HUMAN) | further results
B1 | 0.503 | 92.5 | 32.1 | 3.25 | 166 | 0.66 | 3.09 | 34.7 | 7.44 | 8.6 | 0.207 | 221 | 7 | 28.5 | 61.4 | 3.61 | no binding | no binding | no binding | no binding | RT (CXCL2_HUMAN): 2.89 min; binding result (CXCL11_HUMAN): no binding; binding result (CXCL12_HUMAN): no binding; binding result (CXCL9_HUMAN): no binding; binding result (CXCL7_HUMAN): no binding; binding result (CXCL13_HUMAN): no binding; Kd (CXCL8_HUMAN): 1.5 nM; RT (CXCL8_HUMAN): 71.3 min; Kd (CXCL1_HUMAN): 2.72 nM; RT (CXCL1_HUMAN): 30.3 min; RT (CXCL5_HUMAN): 3.08 min
B2 | 0.636 | 72.4 | 24.8 | 4.02 | 127 | 0.87 | 2.91 | 43.8 | 5.8 | 11.6 | 0.176 | 276 | 5.13 | 35.2 | 89.9 | 3.28 | no binding | no binding | no binding | no binding | RT (CXCL2_HUMAN): 2.32 min; binding result (CXCL11_HUMAN): no binding; binding result (CXCL12_HUMAN): no binding; binding result (CXCL9_HUMAN): no binding; binding result (CXCL7_HUMAN): no binding; binding result (CXCL13_HUMAN): no binding; Kd (CXCL8_HUMAN): 3.56 nM; RT (CXCL8_HUMAN): 36.8 min; Kd (CXCL1_HUMAN): 5.08 nM; RT (CXCL1_HUMAN): 21 min; RT (CXCL5_HUMAN): 2.32 min
